Here are results for one substance from article PMC7873564.

The experiment concerns the target mouse IgMκ paraprotein TEPC183. The experiment in a line: flow cytometry on cells. As to conditions: mean ± 1 SD from three independent experiments; parent: est. 3.7; read off a plot. (In general: A flow cytometer gives signals particle by particle.)

Turning to “human IgM Fc receptor (FcµR), wild type (from UniProt O60667-1) N66del”, the response (MFI index (x10^2)) was 2.1.
